Test results taken from patent US20030175925A1, “Nicotinamide ribonucleoside kinase” (priority 2001, published 2003).

Assays:
[1] = discontinuous spectral NMNATse assay coupled to alcohol dehydrogenase (NAD to NADH, 340 nm); type: biochemical; details: specific activity; 37° C., pH 7.5, 2 mM ATP, NMN substrate; 1 unit = 1 micromole NADH per minute
Protocol: The discontinuous spectral NMNATse assay procedure (used for both human NadD2_HS and NadR) coupled to alcohol dehydrogenase (ADH) catalyzed conversion of NAD to NADH was adapted from Balducci, E., et al., Biochem. J., 310:395-400 (1995), as described in U.S. Ser. No. 09/550,398, filed Apr. 14, 2000. The assay was performed in disposable UV-transparent plastic cuvettes in a 6-cuvette autosampler of Beckman DU-640 set at 37° C. The 500 μL mixture contained 100 mM HEPES, pH 7.5, 115 mM ethanol, 40 mM semicarbazide, 2 mM ATP, 3 units of ADH (Sigma), and 0.2-2 milliunits of NMNATse (0.1-10 μg depending on specific activity). A reaction was initiated by adding 10 μL of 50 mM NMN, and monitored at 340 nm over 20 minutes. An extinction coefficient of NADH equal to 6.22 mM^−1 cm^−1 was used for rate calculations. One unit of enzyme was defined as a quantity capable of producing 1 micromole of NADH per minute.

[2] = discontinuous spectral NRKse assay coupled to NadD2_HS (NMNATse) and ADH; type: biochemical; details: for RATIO: ratio NmR Kinase / NMNATse specific activity; for NmR Kinase: specific activity, 37° C., pH 8.0, 0.8 mM NmR, ATP, 1 unit = 1 micromole NADH per minute; for NRKse and NMNATse activity (summary in words): NMNATse and NRKse assays together
Protocol: The discontinuous spectral NRKse assay was based on enzymatic coupling of NmR→NMN conversion to production of NAD, catalyzed by excess amounts of recombinant purified NadD2_HS enzyme (NMNATse). NAD production was further coupled to NADH conversion by ADH, as in the NMNATse assay described above.
The assay was performed in disposable UV-transparent plastic cuvettes in a 6-cuvette autosampler of Beckman DU-640 set at 37° C. The 500 μL mixture contained 100 mM Tris/HCl pH 8.0, 115 mM ethanol, 40 mM semicarbazide, 0.8 mM NmR, 0.15 units of NadD2_HS, 3 units of ADH (Sigma), and 0.2-2 milliunits of NRKse (0.2-2 μg, depending on the specific activity). A reaction was initiated by adding 50 μL of 50 mM ATP, and monitored at 340 nm over 20 minutes. An extinction coefficient of NADH equal to 6.22 mM^−1 cm^−1 was used for rate calculations. One unit of enzyme was defined as a quantity capable of producing 1 micromole of NADH per minute.

Molecule | NMNATse [1] [Un/mg] | RATIO [2] | NmR Kinase [2] [Un/mg] | NRKse and NMNATse activity (summary in words) [2]
NadR H. influenzae; N-terminal domain: N-terminal domain of NadR from H. influenzae, amino acids 38-212, only NMNATse domain (protein, UniProt P44308 38-212, looked up, fragment) YNKHTQFLRYQEQIMSKTKEKKVGVIFGKFYPVHTGHINMIYEAFSKVDELHVIVCSDTVRDLKLFYDSKMKRMPTVQDRLRWMQQIFKYQKNQIFIHHLVEDGIPSYPNGWQSWSEAVKTLFHEKHFEPSIVFSSEPQDKAPYEKYLGLEVSLVDPDRTFFNVSATKIRTTPFQ | 3 | <0.001 | <0.003 | 
NadR Salmonella: full-size NadR protein from Salmonella typhimurium, all three domains (HTH, NMNATse, NRKse), His-tagged recombinant (protein, UniProt P24518 1-410, looked up, full-length His tag, full-size NadR protein from Salmonella typhimurium, all three domains (HTH, NMNATse, NRKse), His-tagged recombinant) MSSFDYLKTAIKQQGCTLQQVADASGMTKGYLSQLLNAKIKSPSAQKLEALHRFLGLEFPRRQKNIGVVFGKFYPLHTGHIYLIQRACSQVDELHIIMGYDDTRDRGLFEDSAMSQQPTVSDRLRWLLQTFKYQKNIRIHAFNEEGMEPYPHGWDVWSNGIKAFMAEKGIQPSWIYTSEEADAPQYLEHLGIETVLVDPERTFMNISGAQIRENPFRYWEYIPTEVKPFFVRTVAILGGESSGKSTLVNKLANIFNTTSAWEYGRDYVFSHLGGDEMALQYSDYDKIALGHAQYIDFAVKYANKVAFIDTDFVTTQAFCKKYEGREHPFVQALIDEYRFDLVILLENNTPWVADGLRSLGSSVDRKAFQNLLVEMLKENNIEFVHVKEADYDGRFLRCVELVKEMMGEQG | 0.04 | 125 | 5 | possess NRKse activity in addition to NMNATse activity
NadR H. influenzae: N-truncated NadR protein from H. influenzae, amino acids 38-407, both NMNATse and NRKse domains (protein, UniProt P44308 38-407, looked up, fragment) YNKHTQFLRYQEQIMSKTKEKKVGVIFGKFYPVHTGHINMIYEAFSKVDELHVIVCSDTVRDLKLFYDSKMKRMPTVQDRLRWMQQIFKYQKNQIFIHHLVEDGIPSYPNGWQSWSEAVKTLFHEKHFEPSIVFSSEPQDKAPYEKYLGLEVSLVDPDRTFFNVSATKIRTTPFQYWKFIPKEARPFFAKTVAILGGESSGKSVLVNKLAAVFNTTSAWEYGREFVFEKLGGDEQAMQYSDYPQMALGHQRYIDYAVRHSHKIAFIDTDFITTQAFCIQYEGKAHPFLDSMIKEYPFDVTILLKNNTEWVDDGLRSLGSQKQRQQFQQLLKKLLDKYKVPYIEIESPSYLDRYNQVKAVIEKVLNEEEIS | 0.9 | 0.02 | 0.02 | possess NRKse activity in addition to NMNATse activity
